Data set [1] addresses T1, TrfA wt (G254D/S267L, 33 kDa) (plasmid RK2, UniProt P07676 98-382, G254D;S267L).
T1 sequence: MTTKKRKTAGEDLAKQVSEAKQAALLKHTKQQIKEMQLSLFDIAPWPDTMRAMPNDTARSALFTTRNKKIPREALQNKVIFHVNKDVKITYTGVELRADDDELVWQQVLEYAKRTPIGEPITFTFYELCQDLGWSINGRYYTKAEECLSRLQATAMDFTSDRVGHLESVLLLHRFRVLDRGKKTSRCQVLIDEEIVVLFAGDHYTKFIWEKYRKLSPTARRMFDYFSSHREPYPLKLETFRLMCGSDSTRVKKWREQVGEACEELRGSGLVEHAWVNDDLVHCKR
Description: crosslinking-MS.

Data set [2] addresses T1, TrfA wt (G254D/S267L, 33 kDa). The data set is described as follows: UV crosslinking.

B1: 40T (dsDNA)
DNA 1: AGTGATGACAGATGAGGGGCGC
DNA 2: GCGCCCCTCATCTGTCATCACT
modifications: C2dT at T18 of bottom strand
Consider B1, for which, in data set [1], the binding result is “binds”.

B2: 37T (dsDNA)
DNA 1: AGTGATGACAGATGAGGGGCGC
DNA 2: GCGCCCCTCATCTGTCATCACT
modifications: C2dT at T15 of bottom strand
For B2, the binding result in data set [1] was “binds”.

B3: 3T (dsDNA)
DNA 1: AGTGATGACAGATGAGGGGCGC
DNA 2: GCGCCCCTCATCTGTCATCACT
modifications: C2dT at T3 of top strand
Regarding B3, in data set [1], the binding result is reported as “binds”.

B4: 53T (dsDNA)
DNA 1: CCTGCGGTATTGACACTTGAGGGGCGCGACTACTGACAGATGAGGGGCGCGATCCTTGACACTTGAGGGGCAGAGTGATGACAGATGAGGGGCGCACCTATTGACATTTGAGGGGCTGTCCACAGGCAG
DNA 2: CTGCCTGTGGACAGCCCCTCAAATGTCAATAGGTGCGCCCCTCATCTGTCATCACTCTGCCCCTCAAGTGTCAAGGATCGCGCCCCTCATCTGTCAGTAGTCGCGCCCCTCAAGTGTCAATACCGCAGG
modifications: 5-Br-dU at T53 of top strand
B4: the binding result in data set [2] is on record as “binds”.

B5: 58B (dsDNA)
DNA 1: CCTGCGGTATTGACACTTGAGGGGCGCGACTACTGACAGATGAGGGGCGCGATCCTTGACACTTGAGGGGCAGAGTGATGACAGATGAGGGGCGCACCTATTGACATTTGAGGGGCTGTCCACAGGCAG
DNA 2: CTGCCTGTGGACAGCCCCTCAAATGTCAATAGGTGCGCCCCTCATCTGTCATCACTCTGCCCCTCAAGTGTCAAGGATCGCGCCCCTCATCTGTCAGTAGTCGCGCCCCTCAAGTGTCAATACCGCAGG
modifications: 5-Br-dU in bottom strand: CACTC[BrdU]GCCCC
As to B5, the binding result in data set [2] is “binds”.

B6: 69B (dsDNA)
DNA 1: CCTGCGGTATTGACACTTGAGGGGCGCGACTACTGACAGATGAGGGGCGCGATCCTTGACACTTGAGGGGCAGAGTGATGACAGATGAGGGGCGCACCTATTGACATTTGAGGGGCTGTCCACAGGCAG
DNA 2: CTGCCTGTGGACAGCCCCTCAAATGTCAATAGGTGCGCCCCTCATCTGTCATCACTCTGCCCCTCAAGTGTCAAGGATCGCGCCCCTCATCTGTCAGTAGTCGCGCCCCTCAAGTGTCAATACCGCAGG
modifications: 5-Br-dU in bottom strand: CTCAAG[BrdU]GTCAAGG
Take B6: the binding result in data set [2] is given as “binds”.

B7: 57T (dsDNA)
DNA 1: CCTGCGGTATTGACACTTGAGGGGCGCGACTACTGACAGATGAGGGGCGCGATCCTTGACACTTGAGGGGCAGAGTGATGACAGATGAGGGGCGCACCTATTGACATTTGAGGGGCTGTCCACAGGCAG
DNA 2: CTGCCTGTGGACAGCCCCTCAAATGTCAATAGGTGCGCCCCTCATCTGTCATCACTCTGCCCCTCAAGTGTCAAGGATCGCGCCCCTCATCTGTCAGTAGTCGCGCCCCTCAAGTGTCAATACCGCAGG
modifications: 5-Br-dU at T57 of top strand
B7: in data set [2], the binding result is recorded as “binds”.

B8: 71B (dsDNA)
DNA 1: CCTGCGGTATTGACACTTGAGGGGCGCGACTACTGACAGATGAGGGGCGCGATCCTTGACACTTGAGGGGCAGAGTGATGACAGATGAGGGGCGCACCTATTGACATTTGAGGGGCTGTCCACAGGCAG
DNA 2: CTGCCTGTGGACAGCCCCTCAAATGTCAATAGGTGCGCCCCTCATCTGTCATCACTCTGCCCCTCAAGTGTCAAGGATCGCGCCCCTCATCTGTCAGTAGTCGCGCCCCTCAAGTGTCAATACCGCAGG
modifications: 5-Br-dU in bottom strand: CAAGTG[BrdU]CAAGG
With B8, the binding result in data set [2] is given as “binds”.

B9: 56T (dsDNA)
DNA 1: CCTGCGGTATTGACACTTGAGGGGCGCGACTACTGACAGATGAGGGGCGCGATCCTTGACACTTGAGGGGCAGAGTGATGACAGATGAGGGGCGCACCTATTGACATTTGAGGGGCTGTCCACAGGCAG
DNA 2: CTGCCTGTGGACAGCCCCTCAAATGTCAATAGGTGCGCCCCTCATCTGTCATCACTCTGCCCCTCAAGTGTCAAGGATCGCGCCCCTCATCTGTCAGTAGTCGCGCCCCTCAAGTGTCAATACCGCAGG
modifications: 5-Br-dU at T56 of top strand
On to B9, for which the binding result in data set [2] was “binds”.

The record behind these values is article PMC8034659.
